Paper PMC8096270

Legend:
[1] = target: Full-length MMTV Gag polypeptide with a C-terminus hexa-histidine tag (Pr77^Gag-His6-tag protein) (mouse mammary tumor virus (MMTV)); experiment: dynamic light scattering; Pr77^Gag in storage buffer (50 mM Tris-HCl pH 8.0, 1 M NaCl), 20°C; mean hydrodynamic radius based on number distribution
[2] = system: Pr77Gag (Gag precursor polyprotein) (Mouse mammary tumor virus (strain not stated; HYB-MTV?)); experiment: EMSA; conditions: competition, filter binding: 30 mM Tris pH 7.5, 300 mM NaCl, 5 mM MgCl2, DTT (10 mM in protein diluent), 0.01% Triton X-100, BSA, 37 C 30 min then ice …

Substance | stoichiometry N [1] | Kd [2]
Full-length MMTV Gag polypeptide with a C-terminus hexa-histidine tag (Pr77^Gag-His6-tag protein) (natural protein) | 3 | –
WT unspliced gRNA nt 1-712 (SA35) | – | 480 nM
